The term Kd denotes the free concentration of one partner at which half of the binding sites on the other are occupied at equilibrium, for simple one-to-one binding. A low value points to tighter binding.

The target in test [1] is T1, keratin 5 (human, UniProt P13647 1-590).
T1 sequence (looked up): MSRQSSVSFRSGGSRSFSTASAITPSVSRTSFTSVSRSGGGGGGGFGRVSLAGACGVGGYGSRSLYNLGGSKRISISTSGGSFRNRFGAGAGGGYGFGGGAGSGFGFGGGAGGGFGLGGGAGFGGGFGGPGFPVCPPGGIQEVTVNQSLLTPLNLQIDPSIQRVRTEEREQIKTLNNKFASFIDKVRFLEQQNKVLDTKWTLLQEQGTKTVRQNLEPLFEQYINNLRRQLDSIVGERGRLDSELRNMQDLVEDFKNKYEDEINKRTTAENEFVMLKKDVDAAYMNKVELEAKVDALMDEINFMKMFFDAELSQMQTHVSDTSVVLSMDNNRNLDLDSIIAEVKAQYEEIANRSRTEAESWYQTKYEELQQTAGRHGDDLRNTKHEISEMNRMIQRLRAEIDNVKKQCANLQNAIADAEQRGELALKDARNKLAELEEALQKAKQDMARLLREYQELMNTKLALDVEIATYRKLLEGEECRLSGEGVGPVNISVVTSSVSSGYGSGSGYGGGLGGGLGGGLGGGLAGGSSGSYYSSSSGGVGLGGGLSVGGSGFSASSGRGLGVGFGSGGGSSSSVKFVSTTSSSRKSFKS
Briefly: filament reconstitution.

Test [2] deals with T2, wt K5–K14 filaments (human, UniProt P13647 1-590; P02533 1-472).
T2 sequence (looked up) 1: T1 sequence (looked up)
T2 sequence (looked up) 2: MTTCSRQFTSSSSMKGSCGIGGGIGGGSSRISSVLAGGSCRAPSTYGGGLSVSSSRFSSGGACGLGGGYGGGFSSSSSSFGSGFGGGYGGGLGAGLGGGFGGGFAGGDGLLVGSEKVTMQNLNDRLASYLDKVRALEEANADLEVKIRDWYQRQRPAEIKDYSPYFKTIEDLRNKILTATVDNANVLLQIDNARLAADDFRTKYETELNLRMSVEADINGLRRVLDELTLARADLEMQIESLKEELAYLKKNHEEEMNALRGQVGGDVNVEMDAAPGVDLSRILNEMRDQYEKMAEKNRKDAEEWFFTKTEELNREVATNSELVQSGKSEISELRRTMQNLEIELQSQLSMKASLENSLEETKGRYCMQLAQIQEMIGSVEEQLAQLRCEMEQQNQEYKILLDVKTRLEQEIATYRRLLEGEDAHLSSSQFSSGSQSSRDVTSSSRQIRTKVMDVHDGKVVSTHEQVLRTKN
Nature of the test: co-sedimentation.

B1: keratin 19 (natural protein, human, UniProt P08727 1-400, looked up)
chain: MTSYSYRQSSATSSFGGLGGGSVRFGPGVAFRAPSIHGGSGGRGVSVSSARFVSSSSSGAYGGGYGGVLTASDGLLAGNEKLTMQNLNDRLASYLDKVRALEAANGELEVKIRDWYQKQGPGPSRDYSHYYTTIQDLRDKILGATIENSRIVLQIDNARLAADDFRTKFETEQALRMSVEADINGLRRVLDELTLARTDLEMQIEGLKEELAYLKKNHEEEISTLRGQVGGQVSVEVDSAPGTDLAKILSDMRSQYEVMAEQNRKDAEAWFTSRTEELNREVAGHTEQLQMSRSEVTDLRRTLQGLEIELQSQLSMKAALEDTLAETEARFGAQLAHIQALISGIEAQLGDVRADSERQNQEYQRLMDIKSRLEQEIATYRSLLEGQEDHYNNLSASKVL
B1: the binding result in test [1] is “binds”. The molecule SSSQFSSGSQSSRDVTSSSRQIRTKVMDVHDGKVVSTHEQVLRTKN (domain or fragment) [His-T14 (His-tagged nonhelical tail domain of human keratin 14)] had a Kd in test [2] of about 2000 nM.
